From article PMC7728782, “Heat induces end to end repetitive association in P. furiosusL-asparaginase which enables its thermophilic property” (Scientific Reports, 2020)

How the values were obtained:
[1] = molecular target: defunct cPfA (dcPfA): cPfA truncated beyond D178 of the N-terminal domain (Pyrococcus furiosus) (UniProt Q8TZE8)
[2] = molecular target: conjoined PfA (cPfA): N-PfA and C-PfA halves of P. furiosus L-asparaginase without the 19-residue linker (Pyrococcus furiosus) (UniProt Q8TZE8); test: SAXS; protein at 6 mg/mL in a thermostated quartz capillary, 80 °C; association state from I0 of the Guinier analysis against lysozyme
[3] = molecular target: conjoined PfA (cPfA): N-PfA and C-PfA halves of P. furiosus L-asparaginase without the 19-residue linker (Pyrococcus furiosus) (UniProt Q8TZE8); test: SAXS; protein at 6 mg/mL in a thermostated quartz capillary, 30 °C; association state from I0 of the Guinier analysis against lysozyme
[4] = molecular target: conjoined PfA (cPfA): N-PfA and C-PfA halves of P. furiosus L-asparaginase without the 19-residue linker (Pyrococcus furiosus) (UniProt Q8TZE8); test: SAXS; protein at 6 mg/mL in a thermostated quartz capillary, 70 °C; association state from I0 of the Guinier analysis against lysozyme
[5] = molecular target: conjoined PfA (cPfA): N-PfA and C-PfA halves of P. furiosus L-asparaginase without the 19-residue linker (Pyrococcus furiosus) (UniProt Q8TZE8); test: SAXS; protein at 6 mg/mL in a thermostated quartz capillary, 40 °C; association state from I0 of the Guinier analysis against lysozyme
[6] = molecular target: conjoined PfA (cPfA): N-PfA and C-PfA halves of P. furiosus L-asparaginase without the 19-residue linker (Pyrococcus furiosus) (UniProt Q8TZE8); test: SAXS; protein at 6 mg/mL in a thermostated quartz capillary, 60 °C; association state from I0 of the Guinier analysis against lysozyme
[7] = molecular target: conjoined PfA (cPfA): N-PfA and C-PfA halves of P. furiosus L-asparaginase without the 19-residue linker (Pyrococcus furiosus) (UniProt Q8TZE8); test: SAXS; protein at 6 mg/mL in a thermostated quartz capillary, 50 °C; association state from I0 of the Guinier analysis against lysozyme
[8] = molecular target: conjoined PfA (cPfA): N-PfA and C-PfA halves of P. furiosus L-asparaginase without the 19-residue linker (Pyrococcus furiosus) (UniProt Q8TZE8); test: SAXS; protein at 6 mg/mL in a thermostated quartz capillary, 25 °C; association state from I0 of the Guinier analysis against lysozyme
[9] = molecular target: the molecule itself; test: crystal structure; cPfA crystallised at 37 °C, 2.36 Å, PDB 5CBP; contacts between symmetry mates
[10] = molecular target: the molecule itself; test: SAXS; protein at 6 mg/mL in a thermostated quartz capillary, 80 °C; association state from I0 of the Guinier analysis against lysozyme
[11] = molecular target: the molecule itself; test: SAXS; protein at 6 mg/mL in a thermostated quartz capillary, 25 °C; association state from I0 of the Guinier analysis against lysozyme
[12] = molecular target: the molecule itself; test: SAXS; protein at 6 mg/mL in a thermostated quartz capillary, 30 °C; association state from I0 of the Guinier analysis against lysozyme
[13] = molecular target: the molecule itself; test: SAXS; protein at 6 mg/mL in a thermostated quartz capillary, 50 °C; association state from I0 of the Guinier analysis against lysozyme
[14] = molecular target: the molecule itself; test: SAXS; protein at 6 mg/mL in a thermostated quartz capillary, 40 °C; association state from I0 of the Guinier analysis against lysozyme

“defunct cPfA (dcPfA): cPfA truncated beyond D178 of the N-terminal domain (from UniProt Q8TZE8 1-178; Q8TZE8 1-178) (complex)” gave a loss in specific activity of dcPfA relative to cPfA, 45 °C [1] of 38%, a loss in specific activity of dcPfA relative to cPfA, 60 °C [1] of 60% and a loss in specific activity of dcPfA relative to cPfA, 70 °C [1] of 80%. For the same molecule, the loss in specific activity of dcPfA relative to cPfA, 80 °C [1] was 90%.

“conjoined PfA (cPfA): N-PfA and C-PfA halves of P. furiosus L-asparaginase without the 19-residue linker (from UniProt Q8TZE8 1-182; Q8TZE8 1-182) (complex)” showed a stoichiometry N [2] of 12, a stoichiometry N [3] of 2 and a stoichiometry N [4] of 8. For the same molecule, the stoichiometry N [5] was 2, the stoichiometry N [6] was 4 and the stoichiometry N [7] was 2. For the same molecule, the stoichiometry N [8] was 2.

B1: N-PfA, N-terminal domain chain of conjoined PfA (domain or fragment, Pyrococcus furiosus, UniProt Q8TZE8 1-182, looked up)
chain: MKILLIGMGGTIASVKGENGYEASLSVKEVLDIAGIKDCEDCDFLDLKNVDSTLIQPEDWVDLAETLYKNVKKYDGIIVTHGTDTLAYTSSMISFMLRNPPIPIVFTGSMIPATEENSDAPLNLQTAIKFATSGIRGVYVAFNGKVMLGVRTSKVRTMSRDAFESINYPIIAELRGEDLVVN
notes: N-PfA, the N-terminal half of P. furiosus L-asparaginase; ends at residue 182
B1: binds [9].

B2: L-asparaginase from Pyrococcus furiosus, full-length wild type (PfA) (enzyme, UniProt Q8TZE8 1-326, looked up)
chain: MKILLIGMGGTIASVKGENGYEASLSVKEVLDIAGIKDCEDCDFLDLKNVDSTLIQPEDWVDLAETLYKNVKKYDGIIVTHGTDTLAYTSSMISFMLRNPPIPIVFTGSMIPATEENSDAPLNLQTAIKFATSGIRGVYVAFNGKVMLGVRTSKVRTMSRDAFESINYPIIAELRGEDLVVNFIPKFNNGEVTLDLRHDPKVLVIKLIPGLSGDIFRAAVELGYRGIVIEGYGAGGIPYRGSDLLQTIEELSKEIPIVMTTQAMYDGVDLTRYKVGRLALRAGVIPAGDMTKEATVTKLMWILGHTNNVEEIKVLMRKNLVGELRD
notes: L-asparaginase of Pyrococcus furiosus, full length, with N-terminal domain, 19-residue linker and C-terminal domain; One protomer; the SAXS rows give the size of the oligomer it forms
With B2 the “stoichiometry N” value [10] was 4, the “stoichiometry N” value [11] was 2 and the “stoichiometry N” value [12] was 2. For the same molecule, the “stoichiometry N” value [13] was 2 and the “stoichiometry N” value [14] was 2.

B3: L-V-V-N peptide (terminal short beta-strand of the N-terminal domain of PfA, Leu179-Asn182) (peptide)
peptide: LVVN
B3 gave a specific activity of dcPfA pre-incubated with LVVN peptide (different molar ratios, highest effective 500 µM) against dcPfA alone, 37 °C [1] of 1.66 fold, a specific activity of dcPfA pre-incubated with LVVN peptide (different molar ratios, highest effective 500 µM) against dcPfA alone, 45 °C [1] of 1.85 fold and a specific activity of dcPfA pre-incubated with LVVN peptide (different molar ratios, highest effective 500 µM) against dcPfA alone, 60 °C [1] of 2.36 fold.
